According to publication PMC10247153 (2022):
No end group written: not given here. Me3 = trimethyl; Me2 = dimethyl

Assays:
[1] = target: T1, PHD1 D343A mutant (human, UniProt P41229-1 318-378, D343A); experiment: NMR; lower limit, from I361
T1 sequence: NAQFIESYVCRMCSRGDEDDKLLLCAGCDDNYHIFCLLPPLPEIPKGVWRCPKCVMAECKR

[2] = target: T2, PHD1 (KDM5C residues 318–378) (human, UniProt P41229-1 318-378); experiment: NMR; from D343
T2 chain: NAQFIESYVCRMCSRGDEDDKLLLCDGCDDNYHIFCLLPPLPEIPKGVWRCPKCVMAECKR

[3] = target: T3, unmodified 147 bp mononucleosome (human, UniProt P68431 1-136); experiment: apparent, EMSA, lower limit
[4] = target: T4, unmodified 187 bp mononucleosome (human, UniProt P68431 1-136); experiment: apparent, EMSA
[5] = target: T2, PHD1 (KDM5C residues 318–378); experiment: NMR; lower limit, from I361
[6] = target: T5, Avitag-PHD1 (human, UniProt P41229-1 318-378, not fully specified; biotin on the Avitag (BirA co-expression)); experiment: BLI; dissociation kobs2 (two phase)
T5 chain: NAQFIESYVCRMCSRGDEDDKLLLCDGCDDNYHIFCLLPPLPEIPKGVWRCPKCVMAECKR

[7] = target: T5, Avitag-PHD1; experiment: BLI; dissociation kobs1 (two phase)
[8] = target: T4, unmodified 187 bp mononucleosome; experiment: apparent, EMSA, lower limit
[9] = target: T3, unmodified 147 bp mononucleosome; experiment: apparent Kd, EMSA, lower limit
[10] = target: T3, unmodified 147 bp mononucleosome; experiment: apparent Kd, EMSA, lower limit; remark: listed apart in the source
[11] = target: T3, unmodified 147 bp mononucleosome; experiment: apparent, EMSA
[12] = target: T2, PHD1 (KDM5C residues 318–378); experiment: NMR; from I361

Binder ARTKQTARKSTGGKAPRK [H3 (1–18) tail peptide] has a Kd [1] greater than 1450 µM and a Kd [2] of 140 µM.

B1: KDM5C^1–839 K101A/R107A (domain or fragment)
chain: MEPGSDDFLPPPECPVFEPSWAEFRDPLGYIAKIRPIAEKSGICKIRPPADWQPPFAVEVDNFRFTPRIQRLNELEAQTRVKLNYLDQIAKFWEIQGSSLAIPNVEARILDLYSLSKIVVEEGGYEAICKDRRWARVAQRLNYPPGKNIGSLLRSHYERIVYPYEMYQSGANLVQCNTRPFDNEEKDKEYKPHSIPLRQSVQPSKFNSYGRRAKRLQPDPEPTEEDIEKNPELKKLQIYGAGPKMMGLGLMAKDKTLRKKDKEGPECPPTVVVKEELGGDVKVESTSPKTFLESKEELSHSPEPCTKMTMRLRRNHSNAQFIESYVCRMCSRGDEDDKLLLCDGCDDNYHIFCLLPPLPEIPKGVWRCPKCVMAECKRPPEAFGFEQATREYTLQSFGEMADSFKADYFNMPVHMVPTELVEKEFWRLVNSIEEDVTVEYGADIHSKEFGSGFPVSDSKRHLTPEEEEYATSGWNLNVMPVLEQSVLCHINADISGMKVPWLYVGMVFSAFCWHIEDHWSYSINYLHWGEPKTWYGVPSLAAEHLEEVMKKLTPELFDSQPDLLHQLVTLMNPNTLMSHGVPVVRTNQCAGEFVITFPRAYHSGFNQGYNFAEAVNFCTADWLPAGRQCIEHYRRLRRYCVFSHEELICKMAACPEKLDLNLAAAVHKEMFIMVQEERRLRKALLEKGITEAEREAFELLPDDERQCIKCKTTCFLSALACYDCPDGLVCLSHINDLCKCSSSRQYLRYRYTLDELPAMLHKLKVRAESFDTWANKVRVALEVEDGRKRSLEELRALESEARERRFPNSELLQQLKNCLSEAEACVSRALGLVSGQEAG
B1 gave a Kd [3] greater than 15.1 µM and a Kd [4] of 6.3 µM.

B2: KDM5C^1–839 (domain or fragment)
chain: MEPGSDDFLPPPECPVFEPSWAEFRDPLGYIAKIRPIAEKSGICKIRPPADWQPPFAVEVDNFRFTPRIQRLNELEAQTRVKLNYLDQIAKFWEIQGSSLKIPNVERRILDLYSLSKIVVEEGGYEAICKDRRWARVAQRLNYPPGKNIGSLLRSHYERIVYPYEMYQSGANLVQCNTRPFDNEEKDKEYKPHSIPLRQSVQPSKFNSYGRRAKRLQPDPEPTEEDIEKNPELKKLQIYGAGPKMMGLGLMAKDKTLRKKDKEGPECPPTVVVKEELGGDVKVESTSPKTFLESKEELSHSPEPCTKMTMRLRRNHSNAQFIESYVCRMCSRGDEDDKLLLCDGCDDNYHIFCLLPPLPEIPKGVWRCPKCVMAECKRPPEAFGFEQATREYTLQSFGEMADSFKADYFNMPVHMVPTELVEKEFWRLVNSIEEDVTVEYGADIHSKEFGSGFPVSDSKRHLTPEEEEYATSGWNLNVMPVLEQSVLCHINADISGMKVPWLYVGMVFSAFCWHIEDHWSYSINYLHWGEPKTWYGVPSLAAEHLEEVMKKLTPELFDSQPDLLHQLVTLMNPNTLMSHGVPVVRTNQCAGEFVITFPRAYHSGFNQGYNFAEAVNFCTADWLPAGRQCIEHYRRLRRYCVFSHEELICKMAACPEKLDLNLAAAVHKEMFIMVQEERRLRKALLEKGITEAEREAFELLPDDERQCIKCKTTCFLSALACYDCPDGLVCLSHINDLCKCSSSRQYLRYRYTLDELPAMLHKLKVRAESFDTWANKVRVALEVEDGRKRSLEELRALESEARERRFPNSELLQQLKNCLSEAEACVSRALGLVSGQEAG
Work on B2 yielded a Kd [4] of 4.3 µM.

ARTK(Me2)QTARKSTGGKAPRK [H3K4me2 (1–18) peptide] was tested, and the Kd [5] was greater than 900 µM.

Ac-QSVQPSKFNSYGRRAKRLQP-NH2 [KDM5C (199–218) peptide] showed a koff [6] of 0.02 s⁻¹, a koff [7] of 1.45 s⁻¹ and a Kd [2] of 440 µM.

B3: KDM5C^(1–839 ΔAP) (domain or fragment)
chain: MEPGSDDFLPPPECPVFEPSWAEFRDPLGYIAKIRPIAEKSGICKIRPPADWQPPFAVEVDNFRFTPRIQRLNELEAQTRVKGGGGPPEAFGFEQATREYTLQSFGEMADSFKADYFNMPVHMVPTELVEKEFWRLVNSIEEDVTVEYGADIHSKEFGSGFPVSDSKRHLTPEEEEYATSGWNLNVMPVLEQSVLCHINADISGMKVPWLYVGMVFSAFCWHIEDHWSYSINYLHWGEPKTWYGVPSLAAEHLEEVMKKLTPELFDSQPDLLHQLVTLMNPNTLMSHGVPVVRTNQCAGEFVITFPRAYHSGFNQGYNFAEAVNFCTADWLPAGRQCIEHYRRLRRYCVFSHEELICKMAACPEKLDLNLAAAVHKEMFIMVQEERRLRKALLEKGITEAEREAFELLPDDERQCIKCKTTCFLSALACYDCPDGLVCLSHINDLCKCSSSRQYLRYRYTLDELPAMLHKLKVRAESFDTWANKVRVALEVEDGRKRSLEELRALESEARERRFPNSELLQQLKNCLSEAEACVSRALGLVSGQEAG
In the case of B3, the Kd [3] is reported as greater than 35 µM, the Kd [8] is reported as greater than 42 µM and the Kd [9] is reported as greater than 35 µM.

B4: KDM5C1-839 ΔAP A388P (protein)
chain: MEPGSDDFLPPPECPVFEPSWAEFRDPLGYIAKIRPIAEKSGICKIRPPADWQPPFAVEVDNFRFTPRIQRLNELEAQTRVKGGGGPPEAFGFEQPTREYTLQSFGEMADSFKADYFNMPVHMVPTELVEKEFWRLVNSIEEDVTVEYGADIHSKEFGSGFPVSDSKRHLTPEEEEYATSGWNLNVMPVLEQSVLCHINADISGMKVPWLYVGMVFSAFCWHIEDHWSYSINYLHWGEPKTWYGVPSLAAEHLEEVMKKLTPELFDSQPDLLHQLVTLMNPNTLMSHGVPVVRTNQCAGEFVITFPRAYHSGFNQGYNFAEAVNFCTADWLPAGRQCIEHYRRLRRYCVFSHEELICKMAACPEKLDLNLAAAVHKEMFIMVQEERRLRKALLEKGITEAEREAFELLPDDERQCIKCKTTCFLSALACYDCPDGLVCLSHINDLCKCSSSRQYLRYRYTLDELPAMLHKLKVRAESFDTWANKVRVALEVEDGRKRSLEELRALESEARERRFPNSELLQQLKNCLSEAEACVSRALGLVSGQEAG
Binder B4 has a Kd [10] greater than 45 µM.

B5: ARID (KDM5C residues 73–188) (domain or fragment)
chain: NELEAQTRVKLNYLDQIAKFWEIQGSSLKIPNVERRILDLYSLSKIVVEEGGYEAICKDRRWARVAQRLNYPPGKNIGSLLRSHYERIVYPYEMYQSGANLVQCNTRPFDNEEKDK
For B5, the Kd [11] was 31 µM and the Kd [4] was 22 µM.

For Ac-KEELSHSPEPCTKMTMRLRR-NH2 [KDM5C (295–314) peptide], the koff [6] was 0.04 s⁻¹ and the koff [7] was 2.2 s⁻¹.

Binder ARTK(Me3)QTARKSTGGKAPRK [H3K4me3 (1–18) peptide] has a Kd [5] greater than 1500 µM.

For ARTK(Me)QTARKSTGGKAPRK [H3K4me1 (1–18) peptide], the Kd [12] was 313 µM.
